In article PMC6309500 (Molecular cell, 2018):

B1: V5-tagged human SIRT1 (enzyme, UniProt Q96EB6 1-747, looked up)
chain: MADEAALALQPGGSPSAAGADREAASSPAGEPLRKRPRRDGPGLERSPGEPGGAAPEREVPAAARGCPGAAAAALWREAEAEAAAAGGEQEAQATAAAGEGDNGPGLQGPSREPPLADNLYDEDDDDEGEEEEEAAAAAIGYRDNLLFGDEIITNGFHSCESDEEDRASHASSSDWTPRPRIGPYTFVQQHLMIGTDPRTILKDLLPETIPPPELDDMTLWQIVINILSEPPKRKKRKDINTIEDAVKLLQECKKIIVLTGAGVSVSCGIPDFRSRDGIYARLAVDFPDLPDPQAMFDIEYFRKDPRPFFKFAKEIYPGQFQPSLCHKFIALSDKEGKLLRNYTQNIDTLEQVAGIQRIIQCHGSFATASCLICKYKVDCEAVRGDIFNQVVPRCPRCPADEPLAIMKPEIVFFGENLPEQFHRAMKYDKDEVDLLIVIGSSLKVRPVALIPSSIPHEVPQILINREPLPHLHFDVELLGDCDVIINELCHRLGGEYAKLCCNPVKLSEITEKPPRTQKELAYLSELPPTPLHVSEDSSSPERTSPPDSSVIVTLLDQAAKSNDDLDVSESKGCMEEKPQEVQTSRNVESIAEQMENPDLKNVGSSTGEKNERTSVAGTVRKCWPNRVAKEQISRRLDGNQYLFLPPNRYIFHGAEVYSDSEDDVLSSSSCGSNSDSGTCQSPSLEEPMEDESEIEEFYNGLEDEPDVPERAGGAGFGTDGDDQEAINEAISVKQEVTDMNYPSNKS
B2: V5-tagged mouse SIRT1 (enzyme, UniProt Q923E4 1-737, looked up)
chain: MADEVALALQAAGSPSAAAAMEAASQPADEPLRKRPRRDGPGLGRSPGEPSAAVAPAAAGCEAASAAAPAALWREAAGAAASAEREAPATAVAGDGDNGSGLRREPRAADDFDDDEGEEEDEAAAAAAAAAIGYRDNLLLTDGLLTNGFHSCESDDDDRTSHASSSDWTPRPRIGPYTFVQQHLMIGTDPRTILKDLLPETIPPPELDDMTLWQIVINILSEPPKRKKRKDINTIEDAVKLLQECKKIIVLTGAGVSVSCGIPDFRSRDGIYARLAVDFPDLPDPQAMFDIEYFRKDPRPFFKFAKEIYPGQFQPSLCHKFIALSDKEGKLLRNYTQNIDTLEQVAGIQRILQCHGSFATASCLICKYKVDCEAVRGDIFNQVVPRCPRCPADEPLAIMKPEIVFFGENLPEQFHRAMKYDKDEVDLLIVIGSSLKVRPVALIPSSIPHEVPQILINREPLPHLHFDVELLGDCDVIINELCHRLGGEYAKLCCNPVKLSEITEKPPRPQKELVHLSELPPTPLHISEDSSSPERTVPQDSSVIATLVDQATNNNVNDLEVSESSCVEEKPQEVQTSRNVENINVENPDFKAVGSSTADKNERTSVAETVRKCWPNRLAKEQISKRLEGNQYLFVPPNRYIFHGAEVYSDSEDDVLSSSSCGSNSDSGTCQSPSLEEPLEDESEIEEFYNGLEDDTERPECAGGSGFGADGGDQEVVNEAIATRQELTDVNYPSDKS

Biological target: FLAG-tagged PACS-2 (UniProt Q86VP3 1-889)
Sequence (Q86VP3 whole entry): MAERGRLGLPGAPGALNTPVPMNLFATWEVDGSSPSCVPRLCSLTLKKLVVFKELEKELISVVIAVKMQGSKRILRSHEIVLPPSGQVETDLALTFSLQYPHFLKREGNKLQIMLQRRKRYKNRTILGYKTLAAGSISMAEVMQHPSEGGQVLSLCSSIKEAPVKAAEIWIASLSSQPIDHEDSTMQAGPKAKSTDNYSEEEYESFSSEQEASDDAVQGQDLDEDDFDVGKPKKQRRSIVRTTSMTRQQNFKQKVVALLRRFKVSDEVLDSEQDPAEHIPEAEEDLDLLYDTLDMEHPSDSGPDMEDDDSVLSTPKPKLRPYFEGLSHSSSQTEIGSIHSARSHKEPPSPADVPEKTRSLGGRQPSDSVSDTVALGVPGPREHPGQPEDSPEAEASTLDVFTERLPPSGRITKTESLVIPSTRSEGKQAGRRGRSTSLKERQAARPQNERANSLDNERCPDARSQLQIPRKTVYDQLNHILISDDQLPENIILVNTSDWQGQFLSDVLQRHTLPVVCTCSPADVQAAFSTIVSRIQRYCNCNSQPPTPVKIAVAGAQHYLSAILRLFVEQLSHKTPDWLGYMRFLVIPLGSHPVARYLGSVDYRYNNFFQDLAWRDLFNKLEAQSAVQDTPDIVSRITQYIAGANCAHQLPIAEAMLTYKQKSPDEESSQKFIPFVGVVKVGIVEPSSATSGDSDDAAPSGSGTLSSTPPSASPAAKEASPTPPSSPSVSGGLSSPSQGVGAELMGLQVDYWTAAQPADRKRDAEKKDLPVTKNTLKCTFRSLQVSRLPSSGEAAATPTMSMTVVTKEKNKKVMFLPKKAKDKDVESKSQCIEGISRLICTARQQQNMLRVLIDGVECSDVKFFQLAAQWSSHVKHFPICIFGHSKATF
Assay: co-IP

Binder | fold enhancement of the co-IP in the presence of DBC1
B1 | > 8 fold
B2 | > 8 fold
